# Test results as given in PMC11952088 (Science Advances, 2025).
# B1: AZD3152 (antibody, V domains shown)
# VH: EVQLVESGGGLVQPGRSLRLSCAASGFPFDDYAIHWVRLAPGKGLEWVSSISWDSGSIGYADSVKGRFTISRDNAKNSLYLQMNSLRAEDTALYYCAKGAFPGYSSGWYYGLEVWGQGTTVTVSS
# VL: QSVVTQPPSASGSLGQSVTISCTGTSSDVGGYNYVSWYQQHPGKAPKLMIFEVSKRPSGVPDRFSGSKSGNTASLTVSGLQAEDEADYYCSSYAGNKGVFGGGTKLTVL
# Molecular target: SARS-CoV-2 XBB.1.5 RBD (BLI) (SARS-CoV-2, Omicron XBB.1.5, strain)
# Assay: BLI
# Details: both partners purified
binder,measurement,value
B1,Kd,2 nM
